Experimental data: patent US20230303685A1 (ELECTRA THERAPEUTICS, published 2023)

Assays:
Human SIRPβ1/DAP12 CHO [1] = target: T1, Human SIRPβ1/DAP12 CHO; assay: flow cytometry, stably transfected CHO cells, antibody titrated, labelled anti-human IgG, MFI
T1 construct: also called human SIRPβ1 on CHO cells co-transfected with DAP12; copies: 1 + 2
Description: (§1) Selected antibodies were tested for binding to stably transfected human SIRPα, SIRPβ1 (co-transfected with DAP12), or SIRPγ Chinese hamster ovary (CHO) cells via flow cytometry. A titration of SIRP antibodies was added to the cells and detected using a fluorescently labelled secondary antibody. Graph depicts the median fluorescence intensity (MFI) at each concentration.

Human SIRPγ CHO [2] = target: T2, Human SIRPγ CHO; assay: as above
T2 construct: also called human SIRPγ on CHO cells
T2 chain: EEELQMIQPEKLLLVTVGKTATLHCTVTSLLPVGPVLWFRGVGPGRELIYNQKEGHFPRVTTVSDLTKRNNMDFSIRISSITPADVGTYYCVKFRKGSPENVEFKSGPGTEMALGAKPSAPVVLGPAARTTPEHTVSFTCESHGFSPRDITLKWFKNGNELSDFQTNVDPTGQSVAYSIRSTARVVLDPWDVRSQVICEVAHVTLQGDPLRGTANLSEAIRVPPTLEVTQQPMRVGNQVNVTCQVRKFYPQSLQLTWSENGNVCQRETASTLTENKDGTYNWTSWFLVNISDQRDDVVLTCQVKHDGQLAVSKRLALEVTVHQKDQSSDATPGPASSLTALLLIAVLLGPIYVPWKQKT
Description: as §1

[3] = target: T3, human SIRPα V1 extracellular domain, monomeric (human, UniProt P78324 31-373); assay: ELISA, extracellular domain coated at 2 µg/mL, purified antibody titrated, anti-human IgG, chemiluminescence
T3 construct: also called hSIRPα V1

Human SIRPβ1 [4] = target: T4, Human SIRPβ1; assay: as above
T4 construct: also called human SIRPβ1 extracellular domain, plate-coated
T4 chain: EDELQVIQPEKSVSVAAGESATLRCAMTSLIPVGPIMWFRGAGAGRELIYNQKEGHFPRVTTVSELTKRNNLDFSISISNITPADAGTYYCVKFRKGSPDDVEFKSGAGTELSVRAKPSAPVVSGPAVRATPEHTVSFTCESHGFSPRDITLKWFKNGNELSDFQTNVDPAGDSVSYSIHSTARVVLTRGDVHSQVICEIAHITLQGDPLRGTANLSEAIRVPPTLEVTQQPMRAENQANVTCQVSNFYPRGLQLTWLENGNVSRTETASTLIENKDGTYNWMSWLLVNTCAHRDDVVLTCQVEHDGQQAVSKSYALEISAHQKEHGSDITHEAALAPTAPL

Cynomolgus Monkey SIRPγ [5] = target: T5, Cynomolgus Monkey SIRPγ (Macaca fascicularis); assay: as above
T5 construct: extracellular domain; also called cyno SIRPγ extracellular domain, plate-coated

Human SIRPγ [6] = target: T6, Human SIRPγ; assay: as above
T6 construct: also called human SIRPγ extracellular domain, plate-coated
T6 chain: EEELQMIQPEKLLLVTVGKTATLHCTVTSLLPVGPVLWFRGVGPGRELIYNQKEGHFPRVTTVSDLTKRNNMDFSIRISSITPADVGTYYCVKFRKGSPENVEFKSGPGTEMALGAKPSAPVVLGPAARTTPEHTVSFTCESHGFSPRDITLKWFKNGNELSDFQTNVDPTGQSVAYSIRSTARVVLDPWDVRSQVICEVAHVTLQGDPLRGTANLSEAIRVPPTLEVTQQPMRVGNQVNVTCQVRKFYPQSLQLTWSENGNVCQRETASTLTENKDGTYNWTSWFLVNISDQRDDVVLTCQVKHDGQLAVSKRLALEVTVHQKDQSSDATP

human SIRPγ-His monomer [7] = target: T7, human SIRPγ-His monomer (human); assay: BLI (Octet); antibody on anti-mouse IgG capture tip, SIRP-His monomer at 100, 33.3, 11.1 nM, 1:1 fit, mean KD
T7 construct: 'SIRP-His monomer protein' of the Octet assay; also called SIRP-His; not shown: His tag
How it was run: (§2)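 Rat/mouse-Fc antibodies captured on anti-mouse IgG tips; human-Fc antibodies cleaved with gingipain K to monomeric F(ab′), biotinylated, loaded on streptavidin tips. SIRP-His association then wash-buffer dissociation; 1:1 model fitted per concentration, KD as kdis/kon averaged over concentrations.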

[8] = target: T8, human SIRPα V1-His monomer (human, UniProt P78324 31-373, limits assumed); assay: as above
T8 construct: 'SIRP-His monomer protein' of the Octet assay; also called SIRP-His; not shown: His tag
How it was run: as §2

[9] = target: T3, human SIRPα V1 extracellular domain, …; assay: ELISA, extracellular domain coated at 1 µg/mL, purified antibody titrated, anti-rat IgG, chemiluminescence
Description: Select SIRP antibodies were purified by Protein G from hybridoma supernatants and analyzed in a titration via ELISA. Briefly, 1 μg/mL of extracellular domain SIRPα was coated onto high protein-binding plates and blocked. Purified antibodies were added in a titration to the coated plates. The antibodies were detected by an anti-rat IgG antibody and a chemiluminescent substrate.

[10] = target: T3, human SIRPα V1 extracellular domain, …; assay: ELISA, extracellular domain coated at 2 µg/mL, purified antibody titrated, anti-rat or anti-mouse IgG, chemiluminescence
Description: (§3) Select SIRP antibodies were purified by Protein G from hybridoma supernatants and analyzed in a titration via ELISA. Briefly, 2 μg/mL of extracellular domain of each of the SIRPs was coated onto high protein-binding plates and blocked. Purified antibodies were added in a titration to the coated plates. The antibodies were detected by an anti-rat IgG or an anti-mouse IgG antibody and a chemiluminescent substrate.

Cynomolgus Monkey SIRPγ [11] = target: T5, Cynomolgus Monkey SIRPγ; assay: as above
Description: as §3

Human SIRPγ [12] = target: T6, Human SIRPγ; assay: as above
Description: as §3

[13] = target: T9, Human SIRPγ conjugated to an Fc region (human); assay: BLI blocking; 200 nM antibody pre-incubated with 20 nM SIRPγ-Fc, binding to immobilised CD47-His (competitor), % of response of SIRPγ-Fc alone
T9 construct: also called SIRPγ-Fc; SIRP-Fc; not shown: Fc region
T9 sequence (Q9P1W8 whole entry): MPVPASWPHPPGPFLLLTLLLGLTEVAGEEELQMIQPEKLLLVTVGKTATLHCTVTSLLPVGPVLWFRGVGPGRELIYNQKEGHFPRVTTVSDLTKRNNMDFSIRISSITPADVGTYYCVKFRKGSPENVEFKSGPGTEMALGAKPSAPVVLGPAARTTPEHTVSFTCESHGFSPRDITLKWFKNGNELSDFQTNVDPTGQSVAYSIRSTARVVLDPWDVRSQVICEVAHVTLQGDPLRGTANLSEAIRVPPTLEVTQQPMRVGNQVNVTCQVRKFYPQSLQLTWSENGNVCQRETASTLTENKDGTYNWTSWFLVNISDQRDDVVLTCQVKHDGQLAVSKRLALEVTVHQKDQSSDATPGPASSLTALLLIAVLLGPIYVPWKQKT

Human SIRPβ1 [14] = target: T4, Human SIRPβ1; assay: ELISA, extracellular domain coated at 2 µg/mL, undiluted hybridoma supernatant, anti-rat or anti-mouse IgG, chemiluminescence
Description: Briefly, 2 μg/mL of the extracellular domain of each of the SIRPs was coated onto high protein-binding plates and blocked. Supernatants were added undiluted to coated plates. The antibodies were detected by anti-rat or anti-mouse IgG antibodies and a chemiluminescent substrate. […] The data depict the relative luminescence units read by a plate-reader capable of detecting chemiluminescence.

Human SIRPβ1/DAP12 CHO [15] = target: T1, Human SIRPβ1/DAP12 CHO; assay: flow cytometry, stably transfected CHO cells, antibody titrated, labelled anti-rat or anti-mouse IgG, MFI
Description: as §1

Human SIRPγ CHO [16] = target: T2, Human SIRPγ CHO; assay: as above
Description: as §1

human SIRPβ1-His monomer [17] = target: T10, human SIRPβ1-His monomer (human, UniProt O00241 30-371); assay: BLI (Octet); antibody on anti-mouse IgG capture tip, SIRP-His monomer at 100, 33.3, 11.1 nM, 1:1 fit, mean KD
T10 construct: 'SIRP-His monomer protein' of the Octet assay; also called SIRP-His; not shown: His tag
How it was run: as §2

[18] = target: T11, cynomolgus monkey SIRPα extracellular domain, monomeric (cynomolgus monkey, UniProt A0A2K5VYQ9 31-372); assay: ELISA, extracellular domain coated at 2 µg/mL, purified antibody titrated, anti-rat or anti-mouse IgG, chemiluminescence
T11 construct: extracellular domain; also called Cyno SIRPα
Description: as §3

Cynomolgus Monkey SIRPβ1 = target: T12, Cynomolgus Monkey SIRPβ1 (Macaca fascicularis); assay: as above
T12 construct: extracellular domain; also called cyno SIRPβ1 extracellular domain, plate-coated
Description: as §3

[19] = target: T3, human SIRPα V1 extracellular domain, …; assay: SPR (Biacore); antibody captured by anti-IgG on chip, monomeric SIRPα extracellular domain as analyte, 1:1 model
[20] = target: T11, cynomolgus monkey SIRPα extracellular …; assay: as above
human SIRPβ1-His monomer [21] = target: T10, human SIRPβ1-His monomer; assay: BLI (Octet); biotinylated monomeric F(ab') on streptavidin tip, SIRP-His monomer at 100, 33.3, 11.1 nM, 1:1 fit, mean KD
Description: (§4) Select SIRP antibodies were tested for their affinities to human SIRPα, SIRPβ1, and SIRPγ using a biolayer interferometry (BLI) Octet system (Pall ForteBio). Each SIRP antibody with rat or mouse Fc was immobilized on a biosensor tip by an anti-mouse IgG capture (AMC). Antibodies with human Fc were digested with gingipain K enzyme to yield monomeric F(ab′), biotinylated, then coated onto streptavidin biosensors. […] The biosensors were then exposed to wash buffer to measure off-rate kinetics. The resulting kinetic data were analyzed and fitted using a 1:1 binding model with kₒₙ and kdis fitted separately at each SIRP-His protein concentration. KD affinities were calculated as kdis to kₒₙ ratio at each concentration of SIRP-His and averaged.

human SIRPγ-His monomer [22] = target: T7, human SIRPγ-His monomer; assay: as above
Description: as §4

[23] = target: T8, human SIRPα V1-His monomer; assay: as above
Description: as §4

T1 sequence (DAP12, as listed by the source limits assumed): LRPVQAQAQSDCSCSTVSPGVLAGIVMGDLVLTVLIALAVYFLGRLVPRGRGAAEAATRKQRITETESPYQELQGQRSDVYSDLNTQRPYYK

B1: Antibody 32 (antibody, V domains shown)
VH: QVQLQESGPGLVKPSGTLSLTCAVSGGSISSSNWWSWVRQPPGKGLEWIGEIYHSGNTNYNPSLKSRVTISVDKSKNQFSLKLSSVTAADTAVYYCAREGIEGYYFYYGMDVWGQGTTVTVSS
VL: DIQLTQSPSFLSASVGDRVTITCRASQGISGYLDWYQQKPGKAPKLLIYAASTLQRGVPSRFSGSGSGTDFNLTISSLQPEDFATYYCQQFTSDLITFGQGTRLEIK
notes: same variable regions as Antibodies 3 and 24
In the case of B1, the “EC50 (read off the curve)” value (Human SIRPβ1/DAP12 CHO [1]) is reported as about 0.3 µg/mL, the “EC50 (read off the curve)” value (Human SIRPγ CHO [2]) is reported as about 0.2 µg/mL and the “EC50 (read off the curve)” value [3] is reported as about 0.03 µg/mL. For the same binder, the “EC50 (read off the curve)” value (Human SIRPβ1 [4]) was about 0.03 µg/mL, the “EC50 (read off the curve)” value (Cynomolgus Monkey SIRPγ [5]) was about 0.03 µg/mL and the “EC50 (read off the curve)” value (Human SIRPγ [6]) was about 0.02 µg/mL.

B2: Antibody 4 (antibody, V domains shown)
VH: QVQLQESGPGLLKPSETLSLTCAVSDYSISSGYYWGWIRQPPGKGLEWIGSIYHSGNTYYNPSLKSRVTILVDTSKNQFSLKLSSVTAADTAVYYCARDKCSTTTCSFDYWGQGTLVTVSS
VL: DIQMTQSPSSLSASVGDRVTITCQASQDFSNYLNWYQQKPGKAPKLLIYAASNLETGVPSRFSGSGSGTDFTFTISSLQPEDIAVYYCQQYDNLPYTFGQGTKLEIK
notes: Human variable region, rat IgG2b Fc; from hybridoma
B2 was tested, and the Kd (human SIRPγ-His monomer [7]) was 24.1 nM, the Kd [8] was 46.1 nM and the “EC50 (read off the curve)” value [9] was about 0.05 µg/mL. For the same binder, the “EC50 (read off the curve)” value [10] was about 0.06 µg/mL, the “EC50 (read off the curve)” value (Cynomolgus Monkey SIRPγ [11]) was about 0.07 µg/mL and the “EC50 (read off the curve)” value (Human SIRPγ [12]) was about 0.05 µg/mL. The “SIRPγ-CD47 Response (%)” value [13] was -6.94%, the binding result (Human SIRPβ1 [14]) was “binds” and the binding result (Human SIRPβ1/DAP12 CHO [15]) was “binds”. For the same binder, the “EC50 (read off the curve)” value (Human SIRPγ CHO [16]) was about 0.1 µg/mL.

B3: Antibody 1 (antibody, V domains shown)
VH: QVQLQESGPGLVKPSGTLSLTCAVSGGSISSSNWWSWVRQPPGKGLEWIGEIYHSGSTNYNPSLKSRVTISVDKSKNQFSLKLSSVTAADTAVYYCARRGIWFGVGPWGQGTLVTVSS
VL: DIVMTQSPLSLPVTPGEPASISCRSSQSLLHGNGFNYLDWYLQKPGQSPQLLIYLGSNRASGVPDRFTGSGSGTDFTLKISRVEAEDVGVYYCMQGLQTPRTFGQGTKVEIK
notes: as for B2
With B3 the Kd (human SIRPβ1-His monomer [17]) was 3520 nM, the Kd (human SIRPγ-His monomer [7]) was 973 nM and the Kd [8] was 37.1 nM. For the same binder, the “EC50 (read off the curve)” value [10] was about 0.1 µg/mL, the “EC50 (read off the curve)” value [18] was about 0.1 µg/mL and the “EC50 (read off the curve)” value (Cynomolgus Monkey SIRPβ1) was about 0.2 µg/mL. For the same binder, the “EC50 (read off the curve)” value (Human SIRPγ [12]) was about 0.2 µg/mL, the Kd [19] was 579 nM and the Kd [20] was 581 nM. For the same binder, the “SIRPγ-CD47 Response (%)” value [13] was 110%.

B4: Antibody 28, monomeric F(ab') (gingipain K digest, biotinylated) (Fab, V domains shown)
VH: B3 VH
VL: B3 VL
modifications: biotinylated (site not stated)
B4 was tested, and the Kd (human SIRPβ1-His monomer [21]) was 555 nM, the Kd (human SIRPγ-His monomer [22]) was 1340 nM and the Kd [23] was 14.9 nM.
